From patent US6328728A, “Composition and method for enhancing electrotransport agent delivery” (Alza Corporation, priority 1997, dated 2001)

Assay: Electrophoretic mobility by capillary zone electrophoresis
Assay type: physicochemical
Conditions: for Electrophoretic Mobility / Electrophoretic Mobility (Average): 32° C.
Description: Since electrophoretic mobility (ie, the ability of a drug/agent to migrate in an electric field) is an important aspect of electrotransport drug delivery, the electrophoretic mobility of the drug/agent being delivered is predictive of suitability for transdermal electrotransport delivery. Electrophoretic mobility measurements were performed using a capillary zone electrophoresis instrument (model 2100 P/ACE instrument, Beckman Instruments, Inc., Palo Alto, Calif.). At acid pH values DB-WAX, DB-1, DB-17 (J&W Scientific, Folsom, Calif.) capillary columns were used either with 50 or 100 micron internal diameter column and CElect H75 (Supelco, Bellefonte, Pa.) capillary column with a 75 micron internal diameter. At alkaline pH values uncoated silica capillaries of length 57 cm with an internal diameter of 75 microns were used with an applied voltage of 20 kV. If any electroosmotic flow was present, it was detected using a neutral marker such as 0.01% benzyl alcohol (SIGMA, St. Louis, Mo.) or 1/500 mesityl oxide (Applied Biosystems, Foster City, Calif.). The optimum voltage was determined by doing an Ohm's Law test on each buffer and capillary system. The temperature of the capillary columns was set at 32° C. and a two second pressure injection was done. A UV detector was used to monitor peptide and markers at either 214 or 280 nm.
Voltage injection had to be used for the 27 cm length column. The voltage applied varied depending on the capillary length.
The following equation was used to determine electrophoretic mobility μ. [formula]
If the electroosmotic flow is detected, the following equation can be used.
μpeptide =μtotal -μneutral marker
The measurement procedures described above were conducted on an aqueous solution of the protein insulinotropin, with TWEEN® 20 (MW=1126 g/mol) as the surfactant, with the following modifications. The insulinotropin donor solution concentration was 0.12 mg/mL. One test was run in 10 mM sodium borate at pH 9.0 and another test in 10 mM sodium chloroacetate at pH 3.5.
Fractional changes (%δ) are defined as the difference between the reading at a given surfactant concentration (Ec) minus the reading at zero surfactant (E0), the quantity divided by the difference between the reading at saturated surfactant concentration (Es) minus the reading at zero surfactant (E0), i. e. %δ=(Ec -E0)/(Es-E0).
The measurement procedures described earlier were conducted in this example on an aqueous solution containing insulinotropin as the agent and dodecyl trimethyl ammonium chloride (DTAC) as the ionic surfactant with the following modifications. […]
The same measurement procedures were conducted using an aqueous solution of salmon calcitonin as the agent and the zwitterionic dodecyl sulfobetaine as the surfactant with the following modifications. The temperature was initially 32° C., the surfactant concentration was varied up to 30 mM, and the calcitonin concentration was 0.06 to 0.08 mM. Tables 7, 8, and 9 below provide the results obtained in terms of polypeptide ellipticity expressed as a function of zwitterionic surfactant concentration at pH 3.5 in 12 mM sodium chloroacetate (Table 7), 5.0 in 4 mM piperazine HCI (Table 8), and 6.5 in 15 mM sodium cacodylate (Table 9), respectively. Table 8, in addition, provides the results obtained on electrophoretic mobility and HIC retention time in a phenyl superose column at pH 5.0.

[1] = pH 3.5, 10 mM sodium chloroacetate, TWEEN 20 0
[2] = pH 3.5, 10 mM sodium chloroacetate, TWEEN 20 0.133 mM
[3] = pH 3.5, 10 mM sodium chloroacetate, TWEEN 20 0.266 mM
[4] = pH 3.5, 10 mM sodium chloroacetate, TWEEN 20 0.515 mM
[5] = pH 3.5, 10 mM sodium chloroacetate, TWEEN 20 1.00 mM
[6] = pH 3.5, 10 mM sodium chloroacetate, TWEEN 20 2.28 mM
[7] = pH 3.5, 10 mM sodium chloroacetate, TWEEN 20 4.44 mM
[8] = pH 9.0, 10 mM sodium borate, TWEEN 20 0
[9] = pH 9.0, 10 mM sodium borate, TWEEN 20 0.133 mM
[10] = pH 9.0, 10 mM sodium borate, TWEEN 20 0.266 mM
[11] = pH 9.0, 10 mM sodium borate, TWEEN 20 0.515 mM
[12] = pH 9.0, 10 mM sodium borate, TWEEN 20 1.00 mM
[13] = pH 9.0, 10 mM sodium borate, TWEEN 20 2.28 mM
[14] = pH 9.0, 10 mM sodium borate, TWEEN 20 4.44 mM
[15] = pH 9.0, 10 mM sodium borate, TWEEN 20 8.88 mM
[16] = pH 9.0, 10 mM sodium borate, TWEEN 20 13.3 mM
[17] = pH 9.0, 10 mM sodium borate, TWEEN 20 20.0 mg/mL
[18] = pH 9.0, 10 mM sodium borate, TWEEN 20 25.0 mg/mL

For Salmon Calcitonin [reference compound], the “Electrophoretic Mobility” value (pH 5.0, 4 mM piperazine-HCl, dodecyl sulfobetaine 0, calcitonin 0.076 mM) was 2.4 × 10^-4 cm^2 /V-sec, the “Electrophoretic Mobility” value (pH 5.0, 4 mM piperazine-HCl, dodecyl sulfobetaine 0.83 mM, calcitonin 0.076 mM) was 2.3 × 10^-4 cm^2 /V-sec and the “Electrophoretic Mobility” value (pH 5.0, 4 mM piperazine-HCl, dodecyl sulfobetaine 1.64 mM, calcitonin 0.075 mM) was 2.2 × 10^-4 cm^2 /V-sec. For the same substance, the “Electrophoretic Mobility” value (pH 5.0, 4 mM piperazine-HCl, dodecyl sulfobetaine 3.23 mM, calcitonin 0.074 mM) was 2.2 × 10^-4 cm^2 /V-sec, the “Electrophoretic Mobility” value (pH 5.0, 4 mM piperazine-HCl, dodecyl sulfobetaine 6.25 mM, calcitonin 0.072 mM) was 1.7 × 10^-4 cm^2 /V-sec and the “Electrophoretic Mobility” value (pH 5.0, 4 mM piperazine-HCl, dodecyl sulfobetaine 7.69 mM, calcitonin 0.071 mM) was 1.5 × 10^-4 cm^2 /V-sec. For the same substance, the “Electrophoretic Mobility” value (pH 5.0, 4 mM piperazine-HCl, dodecyl sulfobetaine 9.77 mM, calcitonin 0.069 mM) was 1.6 × 10^-4 cm^2 /V-sec, the “Electrophoretic Mobility” value (pH 5.0, 4 mM piperazine-HCl, dodecyl sulfobetaine 12.4 mM, calcitonin 0.067 mM) was 1.4 × 10^-4 cm^2 /V-sec and the “Electrophoretic Mobility” value (pH 5.0, 4 mM piperazine-HCl, dodecyl sulfobetaine 18.4 mM, calcitonin 0.062 mM) was 0.96 × 10^-4 cm^2 /V-sec. The “Electrophoretic Mobility” value (pH 5.0, 4 mM piperazine-HCl, dodecyl sulfobetaine 26.4 mM, calcitonin 0.056 mM) was 0.88 × 10^-4 cm^2 /V-sec.

For “Insulinotropin: the protein insulinotropin”, the “Electrophoretic Mobility (Average)” value (pH 3.5, 10 mM sodium chloroacetate, DTAC 0) was 1.80 cm^2 /V-s × 10^-4, the “Electrophoretic Mobility (Average)” value (pH 3.5, 10 mM sodium chloroacetate, DTAC 0.83 mM) was 1.82 cm^2 /V-s × 10^-4 and the “Electrophoretic Mobility (Average)” value (pH 3.5, 10 mM sodium chloroacetate, DTAC 1.64 mM) was 1.81 cm^2 /V-s × 10^-4. The “Electrophoretic Mobility (Average)” value (pH 3.5, 10 mM sodium chloroacetate, DTAC 20.0 mM) was 3.46 cm^2 /V-s × 10^-4, the “Electrophoretic Mobility (Average)” value (pH 3.5, 10 mM sodium chloroacetate, DTAC 25.0 mM) was 3.33 cm^2 /V-s × 10^-4 and the “Electrophoretic Mobility” value [1] was -1.8 cm^2 /Vs ×10^-4. For the same substance, the “Electrophoretic Mobility” value [2] was -1.72 cm^2 /Vs ×10^-4, the “Electrophoretic Mobility” value [3] was -1.58 cm^2 /Vs ×10^-4 and the “Electrophoretic Mobility” value [4] was -1.32 cm^2 /Vs ×10^-4. The “Electrophoretic Mobility” value [5] was -1.14 cm^2 /Vs ×10^-4, the “Electrophoretic Mobility” value [6] was -1.08 cm^2 /Vs ×10^-4 and the “Electrophoretic Mobility” value [7] was -1.01 cm^2 /Vs ×10^-4. The “Electrophoretic Mobility, fractional change (% δ)” value [1] was 0, the “Electrophoretic Mobility, fractional change (% δ)” value [2] was 0.10 and the “Electrophoretic Mobility, fractional change (% δ)” value [3] was 0.28. For the same substance, the “Electrophoretic Mobility, fractional change (% δ)” value [4] was 0.61, the “Electrophoretic Mobility, fractional change (% δ)” value [5] was 0.84 and the “Electrophoretic Mobility, fractional change (% δ)” value [6] was 0.91. The “Electrophoretic Mobility, fractional change (% δ)” value [7] was 1.00, the “Electrophoretic Mobility” value [8] was -1.06 cm^2 Vs × 10^-4 and the “Electrophoretic Mobility” value [9] was -1.05 cm^2 Vs × 10^-4. For the same substance, the “Electrophoretic Mobility” value [10] was -1.01 cm^2 Vs × 10^-4, the “Electrophoretic Mobility” value [11] was -1.00 cm^2 Vs × 10^-4 and the “Electrophoretic Mobility” value [12] was -0.89 cm^2 Vs × 10^-4. For the same substance, the “Electrophoretic Mobility” value [13] was -0.73 cm^2 Vs × 10^-4, the “Electrophoretic Mobility” value [14] was -0.62 cm^2 Vs × 10^-4 and the “Electrophoretic Mobility” value [15] was -0.61 cm^2 Vs × 10^-4. For the same substance, the “Electrophoretic Mobility” value [16] was -0.55 cm^2 Vs × 10^-4, the “Electrophoretic Mobility” value [17] was -0.58 cm^2 Vs × 10^-4 and the “Electrophoretic Mobility” value [18] was -0.53 cm^2 Vs × 10^-4. The “Electrophoretic Mobility, fractional change (% δ)” value [8] was 0, the “Electrophoretic Mobility, fractional change (% δ)” value [9] was 0.02 and the “Electrophoretic Mobility, fractional change (% δ)” value [10] was 0.09. For the same substance, the “Electrophoretic Mobility, fractional change (% δ)” value [11] was 0.11, the “Electrophoretic Mobility, fractional change (% δ)” value [12] was 0.32 and the “Electrophoretic Mobility, fractional change (% δ)” value [13] was 0.62. The “Electrophoretic Mobility, fractional change (% δ)” value [14] was 0.83, the “Electrophoretic Mobility, fractional change (% δ)” value [15] was 0.85 and the “Electrophoretic Mobility, fractional change (% δ)” value [16] was 0.96. For the same substance, the “Electrophoretic Mobility, fractional change (% δ)” value [17] was 0.91 and the “Electrophoretic Mobility, fractional change (% δ)” value [18] was 1.00.
